Test results reported in PMC3686747.

Key:
[1] = target: heat shock protein 60 (Hsp60), bovine brain (bovine (endogenous in bovine brain)) (UniProt P31081); assay: co-IP; Mono S active fraction from bovine brain, anti-Hsp60 antibody; N-SMase activity recovered in the immunoprecipitates after resuspension in IP buffer (data not shown)
[2] = target: heat shock protein 60 (Hsp60), bovine brain (bovine (endogenous in bovine brain)) (UniProt P31081); assay: co-IP; active N-SMase fraction (Mono S or Superose 12) from bovine brain, holding both proteins together; anti-Hsp60 or anti-N-SMase2 antibody on Protein A Sepharose, 4 h at 4°C; N-SMase activity of supernatants and immunoprecipitates, immunoblot; with indicated concentrations of Triton X-100 in one panel

Sequence of UniProt P31081 (P31081 27-573): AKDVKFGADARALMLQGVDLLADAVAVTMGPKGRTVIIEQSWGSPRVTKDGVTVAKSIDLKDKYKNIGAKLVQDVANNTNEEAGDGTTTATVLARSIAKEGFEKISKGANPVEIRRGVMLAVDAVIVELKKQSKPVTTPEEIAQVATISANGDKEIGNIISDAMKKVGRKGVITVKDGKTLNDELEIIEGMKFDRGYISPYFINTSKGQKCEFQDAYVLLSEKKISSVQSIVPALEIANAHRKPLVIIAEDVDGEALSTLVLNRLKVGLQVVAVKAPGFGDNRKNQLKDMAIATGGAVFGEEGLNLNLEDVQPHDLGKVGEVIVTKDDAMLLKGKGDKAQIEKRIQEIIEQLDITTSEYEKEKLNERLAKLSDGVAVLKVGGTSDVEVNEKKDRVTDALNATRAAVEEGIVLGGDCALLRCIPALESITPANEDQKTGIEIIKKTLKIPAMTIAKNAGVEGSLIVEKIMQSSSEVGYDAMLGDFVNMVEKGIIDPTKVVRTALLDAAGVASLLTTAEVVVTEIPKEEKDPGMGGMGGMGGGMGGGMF

## neutral sphingomyelinase 2 (N-SMase2), bovine brain, purified as N-SMase ε (enzyme)
[1]
  percent of total N-SMase activity recovered in the anti-Hsp60 immunoprecipitates: 10%
[2]
  percent of N-SMase activity precipitated by anti-Hsp60 antibody: 20%
